Laboratory results published in US6566489 (GENERAL HOSPITAL, dated 2003).

Target: T1, GST alone (UniProt P08515 1-218 = GST)
T1 construct: Negative control
Assay: pull-down on GST beads, western blot with CS4E
Procedure: Fifteen µl of a 50% slurry of GST-S4BP bound to GST beads were incubated with 10 µg of soluble pMal-syndecan in 0.5 ml of lysis buffer that contained 1% BSA. After incubation for 30 minutes at room temperature with constant mixing, the reaction mixtures were placed on ice and washed 3× with lysis buffer followed by, 3 washes with lysis buffer containing 1 M NaCl. Protein bound to GST-S4BP beads was solubilized in SDS-PAGE buffer, electrophoresed, transferred to an Immobilon-P membrane and analyzed for bound syndecan-4 core protein using the avian specific syndecan-4 polyclonal antibody CS4E (Baciu et al. (1994) *J. Biol. Chem.* 269:696–703).

T1 sequence (P08515 whole entry): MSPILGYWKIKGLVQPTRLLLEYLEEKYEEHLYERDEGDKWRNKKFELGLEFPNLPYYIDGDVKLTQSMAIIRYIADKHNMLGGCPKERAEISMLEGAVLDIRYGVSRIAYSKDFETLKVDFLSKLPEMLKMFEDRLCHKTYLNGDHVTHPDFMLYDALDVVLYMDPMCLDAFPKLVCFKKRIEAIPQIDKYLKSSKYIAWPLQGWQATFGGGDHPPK

B1: pMal/syndecan-4 fusion protein, full length syndecan-4 core protein (S-4) (other, avian, UniProt P49416 20-197, looked up, not shown: large carriers)
chain: ESVRETETMDARWLDNVGSGDLPDDEDIGEFTPHLTSDEFDIDDTSGSGDYSDYDDAIYLTTVDTPAISDNYIPGDTERKMEGEKKNTMLDNEIIPDKASPVEANLSNKISMASTANSSIFERTEVLTALIAGGAVGLLFAVFLILLLVYRMKKKDEGSYDLGKKPIYKKAPTNEFYA
notes: Bacterially expressed, soluble, purified on a maltose column
  binding result: no binding (tested: 10 µg of soluble pMal-syndecan in 0.5 ml)
